{"source": "patent US20060024793A1", "data": [{"molecular_target": "thrombin (manufactured by Enzyme Research Laboratories)", "assay": "cell-based or functional assay", "units": {"Secondary rate constant (+hep), thrombin inhibition in the presence of heparin": "M⁻¹ s⁻¹", "Secondary rate constant (-hep), thrombin inhibition in the absence of heparin": "M⁻¹ s⁻¹"}, "values": [{"substance": "ATIII MS705 peak (3) fraction (recombinant human antithrombin III produced by pKAN-ATIII AFMS705, FUT8 gene-double-knockout CHO/DG44 cell) (from UniProt P01008 33-464)", "Secondary rate constant (+hep), thrombin inhibition in the presence of heparin": "2.6e+07", "Secondary rate constant (-hep), thrombin inhibition in the absence of heparin": 8800}, {"substance": "ATIII DG44 peak (2) fraction (recombinant human antithrombin III produced by pKAN-ATIII AFDG44, CHO/DG44 cell) (from UniProt P01008 33-464)", "Secondary rate constant (+hep), thrombin inhibition in the presence of heparin": "2e+07", "Secondary rate constant (-hep), thrombin inhibition in the absence of heparin": 8600}, {"substance": "ATIII DG44 peak (1) fraction (recombinant human antithrombin III produced by pKAN-ATIII AFDG44, CHO/DG44 cell) (from UniProt P01008 33-464)", "Secondary rate constant (+hep), thrombin inhibition in the presence of heparin": "8.7e+06", "Secondary rate constant (-hep), thrombin inhibition in the absence of heparin": 7700}, {"substance": "Neuart (human plasma-derived antithrombin III preparation, manufactured by Mitsubishi Pharma Corporation) (from UniProt P01008 33-464)", "Secondary rate constant (+hep), thrombin inhibition in the presence of heparin": "2.3e+07", "Secondary rate constant (-hep), thrombin inhibition in the absence of heparin": 8200}, {"substance": "ATIII MS705 peak (2) fraction (recombinant human antithrombin III produced by pKAN-ATIII AFMS705, FUT8 gene-double-knockout CHO/DG44 cell) (from UniProt P01008 33-464)", "Secondary rate constant (+hep), thrombin inhibition in the presence of heparin": "2.5e+07"}]}]}
